# Results from patent US20240165140A1, “MEDICATION FOR INHIBITING DNA-PKCS” (TSINGHUA UNIVERSITY, priority 2017, published 2024).
# Key:
# [1] = system: tumor cells with normal P53 function (H1299-P53 and A549-NC); assay: CCK8 cell activity, tumor cells with normal P53 function; assay type: cell-based
# Method: (§1) First, a lentivirus kit (purchased from Shanghai Genepharma) was used to construct a P53 stably overexpressing H1299 cell line (H1299-P53) and a P53 stably knockdown A549 cell line […]. The P53 sequence targeted by the shRNA used to knock down P53 in A549 cells was 5′-[…]-3′ (SEQ ID NO: 4). Virus transfection and the construction of stable cell lines were performed according to the kit instructions. […] After treatment for 12 hours, the drug-containing medium was replaced with a normal medium and the cells were further cultured for 72 hours. Cell activity was measured according to the instructions of the CCK8 kit (Dojindo, Tokyo, Japan).
# (§2) In this example, another chemical drug, Doxorubicin, was used to verify that Endostatin can enhance the sensitivity of P53-deficient tumor cells to chemotherapy. Operation process was the same as in Example 5.
# [2] = system: DNA-PKcs signaling pathway; assay: Immunoblotting of DNA-PKcs signaling pathway activation induced by chemotherapeutic agent; assay type: cell-based; conditions: H1299 and A549 cells; single agent 1 h (Etoposide 10 μM, Endostatin 10 μg/ml, NU7026 10 μM); compared with control group
# Source text: Tumor cells (including non-small cell lung cancer H1299 and A549 cells) were divided into six treatment groups.
# Tumor cells (including H1299 and A549 cells) were divided into six treatment groups.
# [3] = system: A549-shP53 tumor; assay: Subcutaneous tumor growth in nude mice, A549-shP53; assay type: in vivo; conditions: A549-shP53, Day 27; compared with control group; Endostatin 20 mg/kg i.p. once a day, Etoposide 2 mg/kg i.p. once every two days
# Method: (§3) Tumor-bearing nude mice were randomly divided into four groups with 6 to 8 animals for each group, and different drug treatments were performed. […] Tumor volume was measured every other day. 2 to 4 weeks after administration, the mice were sacrificed and the tumor tissue was removed for further use.
# [4] = system: tumor cells with normal P53 function (H1299-P53, A549-NC); assay: Cell colony formation, tumor cells with normal P53 function; assay type: cell-based; conditions: Endostatin 10 μg/ml added 1 h before Etoposide 1 μM, 16 h
# Method: After the treatment, the cells were digested with trypsin, counted, and re-plated in a six-well plate with 1000 cells per well. The cells were cultured in a normal medium for 14 days to form cell colonies.
# [5] = system: P53-deficient tumor cells (H1299-NC and A549-shP53); assay: CCK8 cell activity, P53-deficient tumor cells; assay type: cell-based
# Method: as §1, §2
# [6] = system: H1299-P53 tumor; assay: Subcutaneous tumor growth in nude mice, H1299-P53; assay type: in vivo
# Method: as §3
# [7] = system: P53-deficient tumor cells (H1299-NC, A549-shP53); assay: PI staining apoptosis by flow cytometry, P53-deficient tumor cells; assay type: cell-based; conditions: Endostatin 10 μg/ml added 1 h before Etoposide 1 μM, 16 h
# Method: (§4) The apoptotic cells and adherent cells floating in the culture medium were collected, and the cells were suspended in 500 μl PBS containing 0.05 mg/ml propidium iodide (PI), stained for 15 min at room temperature in dark, and detected by flow cytometry (BD FACS Calibur). PI-positive cells represent apoptotic cells.
# [8] = system: MDA-MB-435S cells; assay: CCK8 cell activity, melanoma MDA-MB-435S; assay type: cell-based; conditions: MDA-MB-435S (P53 mutant); operation process as in Example 5
# Method: as §1
# This example used two cell lines of another tumor type (melanoma), the MDA-MB-435S (P53 mutant) and A375 (P53 wild type) cell lines, to verify the regulatory function of Endostatin on the chemotherapeutic sensitivity of other types of tumor cells with different P53 status. Operation process was the same as in Example 5.
# [9] = system: DNA-PKcs, PARP, γH2AX and Caspase-3 signaling pathways; assay: Immunoblotting of DNA damage and apoptotic pathway, tumor cells with normal P53 function; conditions: H1299-P53, A549-NC; Endostatin 10 μg/ml, Etoposide 10 μM 16 h, z-DEVD-fmk 10 μM; Endostatin and z-DEVD-fmk added 1 h before Etoposide
# Source text: In this example, tumor cells (H1299-NC, H1299-P53, A549-NC, A549-shP53) were divided into six treatment groups.
# [10] = system: A549 tumor-bearing mice (normal P53 function); assay: Survival of A549 tumor-bearing mice; assay type: in vivo; conditions: A549, normal P53 function (FIG. 13B); compared with control group; administration as in Example 12, stopped after 25 days
# Method: as §3
# H1299 and A549 cells were cultured in a vigorous and proliferative state, and tumor collection, grouping, and administration methods were the same as in Example 12. The administration was stopped after 25 days, and the survival of the mice was recorded daily, and the survival curve of the mice was plotted.
# [11] = biological target: T1, DNA-PKcs (Homo sapiens, UniProt P78527); assay: Endostatin-coupled CNBr-activated Sepharose 4B pull-down and co-immunoprecipitation; assay type: binding
# T1 construct: incubated with A549 cell lysate; endogenous in cells; host or cells: A549 and H1299 cells (lysates)
# T1 sequence (P78527 whole entry): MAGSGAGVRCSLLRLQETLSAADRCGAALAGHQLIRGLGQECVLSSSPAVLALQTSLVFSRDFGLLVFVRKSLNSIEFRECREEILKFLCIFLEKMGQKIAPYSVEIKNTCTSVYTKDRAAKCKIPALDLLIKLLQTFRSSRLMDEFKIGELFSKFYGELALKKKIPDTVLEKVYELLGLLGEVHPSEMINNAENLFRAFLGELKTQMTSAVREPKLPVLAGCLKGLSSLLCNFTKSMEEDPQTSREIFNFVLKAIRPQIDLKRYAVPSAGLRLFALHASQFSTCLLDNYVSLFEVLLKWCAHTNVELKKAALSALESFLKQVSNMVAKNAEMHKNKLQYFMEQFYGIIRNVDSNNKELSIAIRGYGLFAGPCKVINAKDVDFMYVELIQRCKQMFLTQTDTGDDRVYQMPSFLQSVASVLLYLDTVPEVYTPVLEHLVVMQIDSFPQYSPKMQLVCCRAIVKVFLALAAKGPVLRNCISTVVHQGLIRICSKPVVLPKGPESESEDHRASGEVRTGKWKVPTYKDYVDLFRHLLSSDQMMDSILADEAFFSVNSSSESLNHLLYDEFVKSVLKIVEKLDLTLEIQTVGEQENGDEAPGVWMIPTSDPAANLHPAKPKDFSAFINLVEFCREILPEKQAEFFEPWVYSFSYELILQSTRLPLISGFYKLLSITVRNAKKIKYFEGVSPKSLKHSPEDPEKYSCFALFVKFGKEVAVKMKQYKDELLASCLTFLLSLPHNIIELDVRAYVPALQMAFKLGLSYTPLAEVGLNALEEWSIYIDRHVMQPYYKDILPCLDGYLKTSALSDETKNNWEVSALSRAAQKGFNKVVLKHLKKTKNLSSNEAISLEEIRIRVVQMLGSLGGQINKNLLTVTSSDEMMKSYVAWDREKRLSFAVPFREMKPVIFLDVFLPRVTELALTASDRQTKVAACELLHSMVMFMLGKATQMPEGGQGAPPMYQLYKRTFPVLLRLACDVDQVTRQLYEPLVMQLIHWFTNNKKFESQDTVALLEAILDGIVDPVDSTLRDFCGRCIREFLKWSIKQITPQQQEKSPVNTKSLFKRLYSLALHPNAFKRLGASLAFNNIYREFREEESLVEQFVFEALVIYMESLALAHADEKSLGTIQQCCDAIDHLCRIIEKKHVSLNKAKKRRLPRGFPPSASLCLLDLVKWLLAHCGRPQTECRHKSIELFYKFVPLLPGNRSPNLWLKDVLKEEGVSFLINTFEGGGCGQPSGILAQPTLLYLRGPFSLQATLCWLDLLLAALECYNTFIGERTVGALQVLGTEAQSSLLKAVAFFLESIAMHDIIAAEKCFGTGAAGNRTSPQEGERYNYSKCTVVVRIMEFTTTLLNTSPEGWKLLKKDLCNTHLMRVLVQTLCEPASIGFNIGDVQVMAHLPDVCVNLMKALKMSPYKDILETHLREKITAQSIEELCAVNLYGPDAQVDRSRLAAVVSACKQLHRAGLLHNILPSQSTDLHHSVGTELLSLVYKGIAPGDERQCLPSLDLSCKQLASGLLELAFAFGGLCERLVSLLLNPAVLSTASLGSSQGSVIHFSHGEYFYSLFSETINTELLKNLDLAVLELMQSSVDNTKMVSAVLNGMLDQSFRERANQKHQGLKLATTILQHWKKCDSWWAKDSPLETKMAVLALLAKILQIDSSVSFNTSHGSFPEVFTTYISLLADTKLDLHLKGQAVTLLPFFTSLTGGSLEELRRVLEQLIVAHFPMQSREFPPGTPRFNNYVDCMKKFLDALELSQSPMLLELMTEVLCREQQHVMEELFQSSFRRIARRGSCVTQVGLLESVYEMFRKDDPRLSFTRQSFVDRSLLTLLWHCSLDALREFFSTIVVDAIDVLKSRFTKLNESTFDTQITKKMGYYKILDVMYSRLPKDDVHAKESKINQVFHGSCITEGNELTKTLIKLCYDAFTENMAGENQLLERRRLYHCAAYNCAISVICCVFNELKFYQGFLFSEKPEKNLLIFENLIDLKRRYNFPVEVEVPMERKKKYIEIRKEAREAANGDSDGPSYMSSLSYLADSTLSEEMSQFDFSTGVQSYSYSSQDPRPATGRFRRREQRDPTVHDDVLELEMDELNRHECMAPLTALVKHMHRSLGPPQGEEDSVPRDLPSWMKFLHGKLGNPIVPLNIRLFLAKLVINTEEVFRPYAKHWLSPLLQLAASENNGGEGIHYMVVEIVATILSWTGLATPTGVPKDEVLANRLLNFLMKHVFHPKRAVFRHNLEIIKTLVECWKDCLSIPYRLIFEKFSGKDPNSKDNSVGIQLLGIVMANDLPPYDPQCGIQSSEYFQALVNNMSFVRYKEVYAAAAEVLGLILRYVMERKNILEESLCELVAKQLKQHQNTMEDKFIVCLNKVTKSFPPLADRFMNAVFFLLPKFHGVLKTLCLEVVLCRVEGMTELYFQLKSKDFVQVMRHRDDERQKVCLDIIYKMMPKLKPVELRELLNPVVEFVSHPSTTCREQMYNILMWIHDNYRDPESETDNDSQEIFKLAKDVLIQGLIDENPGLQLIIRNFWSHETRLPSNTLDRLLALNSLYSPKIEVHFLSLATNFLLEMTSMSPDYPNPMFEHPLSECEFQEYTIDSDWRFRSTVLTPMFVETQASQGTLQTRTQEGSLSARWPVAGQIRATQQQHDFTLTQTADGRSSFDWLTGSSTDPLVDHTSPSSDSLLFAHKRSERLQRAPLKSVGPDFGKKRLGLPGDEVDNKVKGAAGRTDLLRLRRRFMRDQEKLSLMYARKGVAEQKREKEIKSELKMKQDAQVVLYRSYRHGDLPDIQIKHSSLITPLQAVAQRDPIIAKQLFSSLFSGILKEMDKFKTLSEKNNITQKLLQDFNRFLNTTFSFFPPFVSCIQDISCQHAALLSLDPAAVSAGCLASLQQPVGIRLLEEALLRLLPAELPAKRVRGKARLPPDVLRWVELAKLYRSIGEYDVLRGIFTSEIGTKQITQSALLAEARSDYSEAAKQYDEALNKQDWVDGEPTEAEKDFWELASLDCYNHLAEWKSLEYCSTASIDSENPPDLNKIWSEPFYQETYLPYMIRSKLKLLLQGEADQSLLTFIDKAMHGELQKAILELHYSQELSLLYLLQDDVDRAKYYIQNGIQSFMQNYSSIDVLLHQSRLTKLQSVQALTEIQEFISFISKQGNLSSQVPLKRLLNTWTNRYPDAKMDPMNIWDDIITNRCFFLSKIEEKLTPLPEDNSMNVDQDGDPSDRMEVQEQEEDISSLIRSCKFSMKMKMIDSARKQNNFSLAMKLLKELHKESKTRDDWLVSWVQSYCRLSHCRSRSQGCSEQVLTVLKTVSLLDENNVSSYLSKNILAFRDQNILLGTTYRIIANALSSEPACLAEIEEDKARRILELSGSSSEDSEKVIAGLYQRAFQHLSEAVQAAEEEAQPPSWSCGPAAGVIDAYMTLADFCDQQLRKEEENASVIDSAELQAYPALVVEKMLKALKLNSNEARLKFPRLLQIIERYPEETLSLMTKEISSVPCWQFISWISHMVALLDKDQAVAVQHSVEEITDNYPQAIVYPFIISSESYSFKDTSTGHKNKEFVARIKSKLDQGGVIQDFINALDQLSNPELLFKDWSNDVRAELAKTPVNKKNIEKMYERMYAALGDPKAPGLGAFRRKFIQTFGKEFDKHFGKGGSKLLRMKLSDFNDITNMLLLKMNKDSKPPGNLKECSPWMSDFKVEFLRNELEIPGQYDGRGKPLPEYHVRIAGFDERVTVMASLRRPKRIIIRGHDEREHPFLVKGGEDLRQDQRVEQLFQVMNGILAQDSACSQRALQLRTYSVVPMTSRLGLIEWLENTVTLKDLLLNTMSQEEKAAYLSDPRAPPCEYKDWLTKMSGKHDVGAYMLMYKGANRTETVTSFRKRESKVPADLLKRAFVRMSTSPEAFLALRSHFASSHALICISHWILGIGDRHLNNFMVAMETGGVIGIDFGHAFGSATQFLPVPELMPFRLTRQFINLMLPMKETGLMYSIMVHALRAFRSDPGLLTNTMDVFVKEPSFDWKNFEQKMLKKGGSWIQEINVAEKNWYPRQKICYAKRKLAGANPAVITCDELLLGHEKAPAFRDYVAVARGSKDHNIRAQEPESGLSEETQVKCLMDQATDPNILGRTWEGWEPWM
# Method: CNBr-activated Sepharose 4B used in this example was purchased from Sigma. First, according to the instructions, endostatin and bovine serum albumin (BSA) were coupled to CNBr-activated Sepharose 4B, respectively, and incubated with A549 cell lysate. The pull down proteins were subjected to SDS-PAGE electrophoresis and stained with Coomassie blue. […] To further verify the interaction between the two, H1299 and A549 cells were incubated with Endostatin for 2 hours for endocytosis. The cell lysate was mixed with the antibody of DNA-PKcs, and then co-incubated with protein A/G beads.
# [12] = system: tumor cells with normal P53 function (H1299-P53, A549-NC); assay: PI staining apoptosis by flow cytometry, tumor cells with normal P53 function; assay type: cell-based; conditions: Endostatin 10 μg/ml added 1 h before Etoposide 1 μM, 16 h
# Method: as §4
# [13] = system: mRNA levels of BAX, NOXA, PUMA, and P21; assay: Real-time PCR of pro-apoptotic molecules, P53-deficient tumor cells; assay type: cell-based; conditions: H1299-NC, A549-shP53; Endostatin 10 μg/ml added 1 h before Etoposide 1 μM, 16 h
# Method: After the cells were treated as described above, the total RNA of the cells was extracted, and the relative changes in mRNA levels of BAX, NOXA, PUMA, and P21 in the cells were detected by real-time PCR.
# [14] = Operation process as in Example 5, Doxorubicin instead of Etoposide
molecule,measurement,setting,value
"Endostatin: recombinant natural human endostatin expressed by E. coli, from Protgen, SEQ ID NO: 2 (protein, The amino acid sequence of natural human endostatin) MHSHRDFQPVLHLVALNSPLSGGMRGIRGADFQCFQQARAVGLAGTFRAFLSSRLQDLYSIVRRADRAAVPIVNLKDELLFPSWEALFSGSEGPLKPGARIFSFDGKDVLRHPTWPQKSVWHGSDPNGRRLTESYCETWRTEAPSATGQASSLLGGRLLGQSAASCHHAYIVLCIENSFMTASK",Effect on the inhibitory effect of Etoposide on cell activity,"[1]; Endostatin 10 μg/ml pretreatment 1 h, Etoposide 0, 0.1, 1, 10 μM",did not significantly enhance the inhibitory effect of Etoposide
same,Effect on the inhibitory effect of Doxorubicin on cell activity,[1]; [14],did not significantly enhance the inhibitory effect of Doxorubicin
same,"Level of the DNA-PKcs signaling pathway (p-DNA-PKcs (S2056), p-AKT (S473), p-P53 (S15))",[2],did not affect the level of the DNA-PKcs signaling pathway
same,tumor suppression rate,[3],37.1%
same,Effect on inhibition of colony-forming ability by Etoposide,[4],did not significantly enhance theinhibitory effect of Etoposide
same,Effect on toxicity of Etoposide to tumor cells (cell activity),"[5]; Endostatin 10 μg/ml pretreatment 1 h, Etoposide 0, 0.1, 1, 10 μM, 12 hours treatment, 72 hours further culture",could enhance the toxicity of Etoposide to tumor cells
same,Effect on toxicity of Doxorubicin to tumor cells (cell activity),[5]; [14],could enhance the toxicity of Doxorubicin to tumor cells
same,tumor suppression rate,"[6]; H1299-P53, Day 19, compared with control group, Endostatin 20 mg/kg i.p. once a day, Etoposide 2 mg/kg i.p. once every two days",33.8%
same,Effect on the inhibitory effect of Etoposide on tumor growth,"[6]; H1299-P53, Endostatin 20 mg/kg i.p. once a day and Etoposide 2 mg/kg i.p. once every two days",could not enhance the inhibitory effect of Etoposide on tumor growth
same,Effect on ability of Etoposide to promote apoptosis (PI-positive cells),[7],could enhance the ability of Etoposide to promote the apoptosis of tumor cells
same,Effect on toxicity of Etoposide to tumor cells (cell activity),[8],could enhance the toxicity of Etoposide to tumor cells
same,"DNA-PKcs, PARP, γH2AX and Caspase-3 signaling pathway levels",[9],did not affect the above-mentioned signaling pathway levels
same,Survival time of mice,[10],could prolong the survival time of the mice to some extent
same,"Endostatin-binding protein identified by pull-down, SDS-PAGE and mass spectrometric analysis","[11]; A549 cell lysate, BSA-coupled Sepharose as control",DNA-PKcs was identified as a protein interacted with Endostatin
same,DNA-PKcs precipitated by Endostatin-coupled CNBr-activated Sepharose 4B (immunoblotting),[11]; H1299 and A549 cell lysates,can be precipitated by CNBr-activated Sepharose 4B coupled with Endostatin
same,Co-immunoprecipitation with antibody of DNA-PKcs,[11]; H1299 and A549 cells incubated with Endostatin for 2 hours,Endostatin could be co-precipitated by DNA-PKcs
same,Effect on the pro-apoptotic effect of Etoposide (PI-positive cells),[12],did not significantly enhance the pro-apoptotic effect of Etoposide
same,Effect on up-regulation of pro-apoptotic molecules by Etoposide (mRNA),[13],could enhance Etoposide to up-regulate pro-apoptotic molecules
